Usually Kd stands for the free concentration of one partner at which half of the binding sites on the other are occupied at equilibrium, for simple one-to-one binding.

Ends that are not written are not given here. BG‑782 = not defined here

The target of assay [1] is biotin-labeled peptide containing the last 20 amino acids of the α1D-adrenergic receptor C-terminus (human) (UniProt P25100). Kind of assay: BLI; Octet Red 96; 50 nM biotin-labeled α1D-CT peptide immobilised on streptavidin probes, then biocytin; serial dilutions of purified PDZ proteins as analytes until steady state; 20 mM Tris-HCl pH 8.0, 200 mM NaCl, 0.1% bovine serum albumin. In general terms: Biolayer interferometry detects binding as a change in optical thickness at a sensor tip.

A further assay addresses T1, GST-SCRIB PDZ domain 3 (UniProt Q14160 1004-1093).
T1 construct: scribble (SCRIB), PDZ domain 3 alone; also called SCRIB PDZ3; PDZ3; source: E. coli Rosetta (DE3), purified (glutathione agarose); not shown: GST, N-terminal, kept
T1 sequence (looked up): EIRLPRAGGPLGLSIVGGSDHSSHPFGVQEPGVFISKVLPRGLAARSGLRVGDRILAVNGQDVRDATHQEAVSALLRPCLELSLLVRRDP
The assay is described as above. The following applies: both partners purified.

The target in assay [2] is T2, calcium/calmodulin-dependent serine protein kinase (CASK) PDZ domain (UniProt O14936 489-564).
T2 construct: calcium/calmodulin-dependent serine protein kinase (CASK), PDZ domain; The methods elute GST proteins with glutathione; TEV cleavage is told only for crystallography; source: E. coli Rosetta (DE3), purified (glutathione agarose)
T2 sequence (looked up): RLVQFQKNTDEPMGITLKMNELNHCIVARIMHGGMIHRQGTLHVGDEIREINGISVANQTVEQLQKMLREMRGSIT
Described as above. The following applies: both partners purified.

The next assay deals with GST-SCRIB PDZ domain 4 (UniProt Q14160 992-1203). Described as above. Conditions: both partners purified.
The next assay deals with T3, GST-SCRIB PDZ domain 2 (UniProt Q14160 862-950).
T3 construct: scribble (SCRIB), PDZ domain 2 alone; also called SCRIB PDZ2; PDZ2; source: E. coli Rosetta (DE3), purified (glutathione agarose); not shown: GST, N-terminal, kept
T3 sequence (looked up): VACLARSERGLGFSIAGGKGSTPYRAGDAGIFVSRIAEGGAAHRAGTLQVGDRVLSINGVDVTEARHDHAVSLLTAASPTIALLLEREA
The assay is described as above. Conditions: both partners purified.

The next assay concerns the target T4, GST-SCRIB PDZ domain 1 (UniProt Q14160 728-815).
T4 construct: scribble (SCRIB), PDZ domain 1 alone; also called SCRIB PDZ1; PDZ1; source: E. coli Rosetta (DE3), purified (glutathione agarose); not shown: GST, N-terminal, kept
The description is as above. Conditions: both partners purified.

Assay [3] has as its target T5, α1-syntrophin (SNTA) PDZ domain (UniProt Q13424 87-170).
T5 construct: α1-syntrophin (SNTA), PDZ domain; The methods elute GST proteins with glutathione; TEV cleavage is told only for crystallography; source: E. coli Rosetta (DE3), purified (glutathione agarose)
T5 sequence (looked up): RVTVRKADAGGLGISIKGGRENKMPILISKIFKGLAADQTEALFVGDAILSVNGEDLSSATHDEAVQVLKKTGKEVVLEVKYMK
The description is as above. Conditions: both partners purified.

Assay [4] concerns the target GST-SCRIB containing all 4 PDZ domains (WT). Briefly: BLI; reverse BLI: GST-SCRIB immobilised on anti-GST probes, serial dilutions of biotin-labeled α1D-CT as analyte; 20 mM Tris-HCl pH 8.0, 200 mM NaCl, 0.1% bovine serum albumin.
For assay [5], the target named is GST-SCRIB ΔPDZ4 (C-terminal truncation mutant missing PDZ4). Kind of assay: pull-down; SNAP GST-pulldown: 1 μM GST-tagged SCRIB proteins on glutathione agarose beads with serial dilutions of BG-782-labeled SNAP-α1D-CT, 1 h at 4 °C; washes 20 mM Tris-HCl pH 8.0, 200 mM NaCl, 0.05% NP-40; PAGE NIR.
In assay [6] the target is GST-SCRIB ΔPDZ34 (C-terminal truncation mutant missing PDZ3 and PDZ4). The assay is described as above.

T4 sequence (Q14160 728-815): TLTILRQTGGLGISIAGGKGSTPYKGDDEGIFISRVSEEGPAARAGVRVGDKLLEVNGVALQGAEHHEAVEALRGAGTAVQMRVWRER

Consider “GST-SCRIB ΔPDZ34 (C-terminal truncation mutant missing PDZ3 and PDZ4) (domain or fragment)”, for which, in assay [1], the dissociation constant (Kd) worked out at 160 nM.

For “GST-SCRIB H1170A (PDZ4 mutation in SCRIB with all 4 PDZ domains) (domain or fragment)”, the Kd in assay [1] amounted to 320 nM.

Regarding “SCRIB PDZ3 and PDZ4 (PDZ34) (domain or fragment)”, the dissociation constant (Kd) in assay [1] was 340 nM.

In the case of “GST-SCRIB ΔPDZ4 (C-terminal truncation mutant missing PDZ4) (domain or fragment)”, the dissociation constant (Kd) in assay [1] was found to be 140 nM.

“GST-SCRIB H793A (PDZ1 mutation in SCRIB with all 4 PDZ domains) (domain or fragment)” gave a Kd in [1] of 7340 nM.

“human discs large MAGUK scaffold protein 1 (DLG1) PDZ domains (domain or fragment)” registered a Kd in assay [1] of 790 nM.

Take “GST-SCRIB containing all 4 PDZ domains (WT) (domain or fragment)”: the equilibrium dissociation constant (Kd) in assay [1] was 70 nM.

B1: biotin-labeled peptide containing the last 20 amino acids of the α1D-adrenergic receptor C-terminus (peptide, UniProt P25100 553-572, looked up)
peptide: GATCQAYELADYSNLRETDI
modifications: also: biotin label (position not given here)
notes: α1D-adrenergic receptor, distal (last) 20 amino acids of the C-terminus; also called α1D-CT; α1D-AR C-terminal PDZ ligand; source: synthetic peptide, bought: BioMatik
Regarding B1, the Kd was determined as 44200 nM with GST-SCRIB PDZ domain 3; 1150 nM in assay [2]; 1140 nM in the assay with GST-SCRIB PDZ domain 4; 14900 nM in the assay with GST-SCRIB PDZ domain 2; 1930 nM in the assay with GST-SCRIB PDZ domain 1; 560 nM in assay [3]. Besides, the equilibrium dissociation constant (Kd) in assay [4] was determined as 76 nM.

B2: SNAP-α1D-C terminal domain (SNAP-epitope tag adjacent to the N-terminus of the distal 16 amino acids of the α1D-CT) (peptide)
chain: {BG‑782-SNAP tag}-QAYELADYSNLRETDI
modifications: not fully specified; reading uncertain
With B2, the maximal binding response, % of SCRIB WT (% of SCRIB WT) in assay [5] is 48; in [6], 34.
